In publication PMC8592984 (2021):
Read-outs that look alike come from different tables or passages of the source.

How the values were obtained:
Assay in all cases: SPR
Tau 410 P216A = Tau 410 P216A (human, UniProt P10636-5 1-410, P216A)
Tau 410 P179A = Tau 410 P179A (human, UniProt P10636-5 1-410, P179A)
[1] = target: human Tau 410 full-length protein (3R tau), SPR construct (human, UniProt P10636-5 1-410)
[2] = target: T1, human Tau 441 full-length protein (4R tau), SPR construct (human, UniProt P10636-8 1-441)
T1 sequence (P10636 other isoform, or with tags, fused parts or gaps): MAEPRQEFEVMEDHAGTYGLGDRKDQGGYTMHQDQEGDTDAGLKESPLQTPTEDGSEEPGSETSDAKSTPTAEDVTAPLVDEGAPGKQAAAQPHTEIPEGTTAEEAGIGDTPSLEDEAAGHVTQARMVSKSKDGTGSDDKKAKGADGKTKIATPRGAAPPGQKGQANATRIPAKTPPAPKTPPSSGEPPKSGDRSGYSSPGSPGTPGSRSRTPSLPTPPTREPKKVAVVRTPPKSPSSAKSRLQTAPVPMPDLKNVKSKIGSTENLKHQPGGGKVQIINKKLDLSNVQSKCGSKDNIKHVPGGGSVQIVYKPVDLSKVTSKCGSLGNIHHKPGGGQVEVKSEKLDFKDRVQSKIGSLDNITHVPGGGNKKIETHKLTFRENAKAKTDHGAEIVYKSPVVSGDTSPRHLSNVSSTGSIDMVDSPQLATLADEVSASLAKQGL

Tau 410 P179A/P216A = Tau 410 P179A/P216A (human, UniProt P10636-5 1-410, P179A | P216A)
Chain of Tau 410 P179A/P216A (P10636 other isoform, or with tags, fused parts or gaps P179A | P216A | P179A P216A): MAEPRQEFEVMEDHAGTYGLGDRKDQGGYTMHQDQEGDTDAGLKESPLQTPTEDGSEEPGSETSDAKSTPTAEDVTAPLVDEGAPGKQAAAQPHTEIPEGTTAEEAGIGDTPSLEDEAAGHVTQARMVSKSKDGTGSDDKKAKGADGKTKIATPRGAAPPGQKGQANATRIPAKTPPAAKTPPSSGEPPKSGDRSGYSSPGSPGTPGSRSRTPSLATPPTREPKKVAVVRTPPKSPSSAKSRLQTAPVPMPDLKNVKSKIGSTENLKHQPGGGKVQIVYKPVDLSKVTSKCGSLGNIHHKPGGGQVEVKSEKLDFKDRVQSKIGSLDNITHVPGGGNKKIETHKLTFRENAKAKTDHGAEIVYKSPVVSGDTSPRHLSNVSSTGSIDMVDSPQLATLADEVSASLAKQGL

Tau 441 P301S = Tau 441 P301S (human, UniProt P10636-8 1-441, P301S)
Chain of Tau 441 P301S (P10636 other isoform, or with tags, fused parts or gaps P301S | P301S): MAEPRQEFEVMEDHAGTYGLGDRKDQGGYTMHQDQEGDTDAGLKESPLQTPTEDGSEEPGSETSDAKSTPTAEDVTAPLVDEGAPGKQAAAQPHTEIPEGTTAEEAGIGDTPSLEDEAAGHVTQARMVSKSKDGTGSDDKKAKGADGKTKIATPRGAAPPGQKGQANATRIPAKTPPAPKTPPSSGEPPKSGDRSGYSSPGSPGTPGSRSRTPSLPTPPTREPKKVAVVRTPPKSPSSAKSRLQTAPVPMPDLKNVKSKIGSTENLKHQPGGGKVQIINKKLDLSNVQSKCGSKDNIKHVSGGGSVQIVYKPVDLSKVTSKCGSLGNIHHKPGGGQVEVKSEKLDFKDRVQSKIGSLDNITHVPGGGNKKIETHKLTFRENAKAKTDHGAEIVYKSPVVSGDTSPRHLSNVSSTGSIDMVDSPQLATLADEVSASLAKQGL

[3] = target: T1, human Tau 441 full-length protein (4R …); remark: listed apart in the source

Chain of Tau 410 P179A (P10636 other isoform, or with tags, fused parts or gaps P179A | P179A): as the sequence (P10636 other isoform, or with tags, fused parts or gaps P179A | P216A | P179A P216A) above, with A216P counted along it
Chain of Tau 410 P216A (P10636 other isoform, or with tags, fused parts or gaps P216A | P216A): as the sequence (P10636 other isoform, or with tags, fused parts or gaps P179A | P216A | P179A P216A) above, with A179P counted along it
Chain of human Tau 410 full-length protein (3R tau), SPR construct (P10636 other isoform, or with tags, fused parts or gaps): as the sequence (P10636 other isoform, or with tags, fused parts or gaps P179A | P216A | P179A P216A) above, with A179P, A216P counted along it

Row | Kd (Tau 410 P216A) [nM] | Kd (Tau 410 P179A) [nM] | Kd [1] [nM] | Kd [2] [nM] | Kd (Tau 410 P179A/P216A) [nM] | Kd (Tau 441 P301S) [nM] | Kd [3] [nM] | Binder
1 | 314 | 4820 | 43.3 | 12.2 | 26000 | 51.5 | 42.1 | human PQBP1 full-length form (PQBP1-FL) (natural protein) MPLPVALQTRLAKRGILKHLEPEPEEEIIAEDYDDDPVDYEATRLEGLPPSWYKVFDPSCGLPYYWNADTDLVSWLSPHDPNSVVTKSAKKLRSSNADAEEKLDRSHDKSDRGHDKSDRSHEKLDRGHDKSDRGHDKSDRDRERGYDKVDRERERDRERDRDRGYDKADREEGKERRHHRREELAPYPKSKKAVSRKDEELDPMDPSSYSDAPRGTWSTGLPKRNEAKTGADTTAAGPLFQQRPYPSPGAVLRANAEASRTKQQD
2 | 445 | 6340 | 76.9 | 11 | 73300 | 46.2 | 54.7 | human PQBP1(1–94) including WWD (domain or fragment) MPLPVALQTRLAKRGILKHLEPEPEEEIIAEDYDDDPVDYEATRLEGLPPSWYKVFDPSCGLPYYWNADTDLVSWLSPHDPNSVVTKSAKKLRS
